Experiments:
[1] = target: fCK18 in apoptosis-induced HepG2 cell culture supernatant (human) (UniProt P05783); assay: commercial fCK18 kit ELISA with M30 conjugate; fCK18 0.28 ng/mL
[2] = target: fCK18 in apoptosis-induced HepG2 cell culture supernatant (human) (UniProt P05783); assay: commercial fCK18 kit ELISA with M30 conjugate; fCK18 6.79 ng/mL
[3] = target: fCK18 in apoptosis-induced HepG2 cell culture supernatant (human) (UniProt P05783); assay: commercial fCK18 kit ELISA with M30 conjugate; fCK18 2.23 ng/mL
[4] = target: fCK18 in apoptosis-induced HepG2 cell culture supernatant (human) (UniProt P05783); assay: commercial fCK18 kit ELISA with M30 conjugate; fCK18 182.28 ng/mL
[5] = target: fCK18 in apoptosis-induced HepG2 cell culture supernatant (human) (UniProt P05783); assay: commercial fCK18 kit ELISA with M30 conjugate
[6] = target: fCK18 in apoptosis-induced HepG2 cell culture supernatant (human) (UniProt P05783); assay: commercial fCK18 kit ELISA with M30 conjugate; fCK18 0.09 ng/mL
[7] = target: fCK18 in apoptosis-induced HepG2 cell culture supernatant (human) (UniProt P05783); assay: commercial fCK18 kit ELISA with M30 conjugate; fCK18 20.27 ng/mL
[8] = target: fCK18 in apoptosis-induced HepG2 cell culture supernatant (human) (UniProt P05783); assay: commercial fCK18 kit ELISA with M30 conjugate; fCK18 60.73 ng/mL
[9] = target: fCK18 in apoptosis-induced HepG2 cell culture supernatant (human) (UniProt P05783); assay: commercial fCK18 kit ELISA with M30 conjugate; fCK18 0.74 ng/mL

fCK18 in apoptosis-induced HepG2 cell culture supernatant (human), sequence (P05783 239-397): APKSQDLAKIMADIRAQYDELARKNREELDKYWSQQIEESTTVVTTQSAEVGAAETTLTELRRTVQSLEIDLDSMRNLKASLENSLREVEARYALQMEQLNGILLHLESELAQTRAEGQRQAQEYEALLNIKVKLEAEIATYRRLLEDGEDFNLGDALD

M30 antibody
S/N ratio [1]: 1.2
S/N ratio [2]: 5.1
S/N ratio [3]: 2.4
S/N ratio [4]: 48.3
fCK18 concentration detectable (S/N ratio of 2 or more) [5]: > 2.23 ng/mL
S/N ratio [6]: 1.1
S/N ratio [7]: 12.8
S/N ratio [8]: 37.5
S/N ratio [9]: 1.5

Source: patent US20220267427A1
